# Data as given in US20090203610A1, “METHODS OF TREATING OBESITY OR DIABETES USING NT-4/5” (RINAT NEUROSCIENCE CORPORATION, priority 2004, published 2009).
# B1: NT-4/5: mature human neurotrophin-4/5 (SEQ ID NO:1), obtained from Genentech or produced in E. coli (protein, listed as Homo sapiens)
# chain: GVSETAPASRRGELAVCDAVSGWVTDRRTAVDLRGREVEVLGEVPAAGGSPLRQYFFETRCKADNAEEGGPGAGGGGCRGVDRRHWVSECKAKQSYVRALTADAQGRVGWRWIRIDTACVCTLLSRTGRA
# Key:
# Assay type in all cases: in vivo
# [1] = tested on: db/db mice; assay: Body weight and food intake, daily s.c. dosing day 1 to 30 in db/db mice (Example 2)
# Procedure: Female db/db mice (12 weeks old) were divided into three groups and were subcutaneously injected with vehicle (PBS) or NT-4/5 at doses of 5 mg/kg, or 20 mg/kg daily from day 1 to day 30. […] Food intake was reduced to about 20% of the vehicle group level after 10 days of administration of NT-4/5 at 20 mg/kg and was maintained at that level until day 30. Food intake was returned to about the same level as the vehicle group about 12 days after stop of treatment.
# [2] = tested on: NONcNZO-10 polygenic obese and diabetic mice; assay: Non-fasting blood glucose and HbA1c in polygenic obese and diabetic mice NONcNZO-10 (Example 3); conditions: 2 or 10 mg/kg s.c. daily; dose dependent
# Source text: Test animals: 19 male NONcNZO-10 polygenic obese and diabetic mice from Jackson Laboratory (See Leiter et al., Diabetes 53 (Suppl. 1): S4-S11, 2004) at 9 weeks of age weighing in the range of 28-35 g were used in this study.
# Administration of NT-4/5: NT-4/5 was obtained from Genentech Inc.
# The mice were divided into 3 groups of equivalent body weight and baseline glucose distribution (6-7 mice per group). […] Seven days before starting the treatment (day −7), blood samples were collected from the mice as described previously for the determination of baseline levels of blood glucose and triglyceride. After the treatment started, blood samples were collected weekly to determine glucose and triglyceride levels as described in previous examples. Body weight and food intake were monitored 5 days a week through out the entire study.
# [3] = tested on: lean C57BL/6 mice; assay: Body weight, food intake, nonfasting blood glucose, triglyceride in normal lean C57BL/6 mice (Example 11); conditions: for weight loss as compared to the vehicle control group: female C57BL/6 mice, day 2
# Procedure: Test animals: Mice with normal diet were used in this study.
# Administration of NT-4/5: NT-4/5 was produced as described in U.S. Pat. No. 6,184,360. The mice were divided into 5 groups of equivalent baseline body weight, food intake and nonfasting blood glucose level distribution (8 mice per group). Each group received 4 daily subcutaneous doses of vehicle, 1 mg/kg, 2 mg/kg, 5 mg/kg or 10 mg/kg of NT-4/5, respectively, from day 1 to day 4. Body weight and food intake were monitored on daily basis. The non-fasting blood glucose was measure as previously described once a week (day 1 and day 8).
# [4] = tested on: db/db mice; assay: Body weight, daily then intermittent s.c. dosing to day 29 in db/db mice (Example 2)
# Procedure: Female db/db mice (12 weeks old) were divided into four groups and were subcutaneously injected with vehicle (PBS) or NT-4/5 at doses of 2 mg/kg, 5 mg/kg, or 10 mg/kg daily from day 0 to day 4, and then on day 8, day 11, day 15, day 18, day 22, day 25, and day 29. […] In addition, the body weights in NT-4/5 in all treated groups continued to be reduced during the treatment period.
# [5] = tested on: Sprague-Dawley rats; assay: Heat/thermal hyperalgesia, latency for foot withdrawal (Example 13)
# Procedure: To test whether NT-4/5 elicits pain in animals after NT-4/5 administration, a heat/thermal hyperalgesia animal model was used for testing. […] Then the latency for foot withdrawal in response to a constant radiant heat source was measured. See, Hargreaves et al., Neurology 48:501-505 (1997); Shu et al., Pain 80:463-470 (1999).
# [6] = tested on: NONcNZO-10 polygenic obese mice; assay: Water intake, electrolyte balance and endocrine functions in NONcNZO-10 mice (Example 4)
# Source text: Test animals: 40 male NONcNZO-10 polygenic obese mice obtained from Jackson Laboratory at 10 weeks of age weighing in the range of 26-32 g were used in this study.
# Administration of NT-4/5: NT-4/5 was produced in E. coli as descried in U.S. Pat. No. 6,184,360. The mice were divided into 6 groups of equivalent body weight and baseline blood glucose distribution (6-7 mice per group). […] A “paired-fed” control group received daily injection of vehicle, but were only fed with the same amount of food the 3 mg/kg group consumed the previous day. On the day when the treatment started (day 1), a baseline blood samples were collected for measuring glucose and triglyceride. Triglyceride level was measured on day 10. At the end of the study (day 12), a terminal blood sample was collected to determine glucose, triglyceride, electrolytes (Na, K, Cl), testoterone, corticosterone, thyroid hormone (total T4) and thyroid stimulating hormone (TSH) levels. Electrolytes, free testosterone, T4 and TSH levels of serum samples were measured by AniLytics (Gaithesburg, M.D) according to the standard protocols employed by the vendor. Other analytes were measured as described above. Body weight, food intake were monitored 5 days per week through out the entire study. Daily water intake was measured from day 5 through day 7.
# The effects of NT-4/5 treatment on water intake, electrolyte balance and endocrine functions were also tested. Water intake was measured from day 5 through 7. The electrolyte (i.e., Na, K, and Cl) concentrations were measured using the terminal blood samples taken on day 12. […] One way ANOVA followed by Dunnett's post-test were used for statistical analysis.
# [7] = lean male mice, 1, 2, 5 and 10 mg/kg s.c. daily, dose dependent
molecule,measurement,setting,value
B1,"food intake, % of the vehicle group level","[1]; 20 mg/kg, after 10 days of administration, maintained until day 30",about 20%
same,body weight,[1]; 5 or 20 mg/kg s.c. daily day 1 to 30,reduced body weight in a dose dependent manner
same,time after stop of treatment until food intake returned to vehicle group level,"[1]; mouse, in vivo",about 12 days
same,"long term glycemic control, HbA1c levels",[2],improved long term glycemic control
same,non-fasting blood glucose level,[2],reduced non-fasting blood glucose level
same,weight loss as compared to the vehicle control group,[3]; 5 mg/kg,about 8%
same,weight loss as compared to the vehicle control group,[3]; 10 mg/kg,about 11%
same,blood triglyceride,[3]; [7],significantly reduced blood triglyceride
same,body weight,[3]; [7],significantly reduced the body weight
same,food intake,"[3]; lean male mice, 1, 5 and 10 mg/kg s.c. daily, dose dependent",significantly reduced food intake
same,nonfasting blood glucose,"[3]; lean male mice, 2, 5 and 10 mg/kg s.c. daily, dose dependent",significantly reduced nonfasting blood glucose
same,body weight,"[4]; 2, 5 or 10 mg/kg s.c. daily day 0-4, then days 8, 11, 15, 18, 22, 25, 29",reduced body weight in a dose dependent manner
same,body weight reduction,"[4]; day 31, 5 mg/kg and 10 mg/kg groups",about 20%
same,pain,[5]; 2 mg/kg,did not cause pain
same,changes of latency for foot withdrawal in response to radiant heat,"[5]; 2 mg/kg s.c., 3, 5 and 24 hour after administration",No statistically significant changes
same,serum corticosterone levels,"[6]; 0.1-3 mg/kg/day, day 12",did not significantly change
same,testoterone levels,"[6]; 0.1-3 mg/kg/day, day 12",did not significantly change
same,thyroid stimulating hormone (TSH) level,[6]; compared to the vehicle control,no change
same,Total thyroxine T4 reduction,"[6]; daily 3 mg/kg, still within normal range",about 33%
same,treatment groups showing a statistically significant difference from vehicle in water intake,"[6]; day 5 through 7, 0.1, 0.3, 1 and 3 mg/kg",None
